To fix the notation:
B1: Abl interactor 2 (Homo sapiens), Q9NYB9 (parent)
chain: MAELQMLLEEEIPGGRRALFDSYTNLERVADYCENNYIQSADKQRALEETKAYTTQSLASVAYLINTLANNVLQMLDIQASQLRRMESSINHISQTVDIHKEKVARREIGILTTNKNTSRTHKIIAPANLERPVRYIRKPIDYTILDDIGHGVKWLLRFKVSTQNMKMGGLPRTTPPTQKPPSPPMSGKGTLGRHSPYRTLEPVRPPVVPNDYVPSPTRNMAPSQQSPVRTASVNQRNRTYSSSGSSGGSHPSSRSSSRENSGSGSVGVPIAVPTPSPPSVFPAPAGSAGTPPLPATSASAPAPLVPATVPSSTAPNAAAGGAPNLADGFTSPTPPVVSSTPPTGHPVQFYSMNRPASRHTPPTIGGSLPYRRPPSITSQTSLQNQMNGGPFYSQNPVSDTPPPPPPVEEPVFDESPPPPPPPEDYEEEEAAVVEYSDPYAEEDPPWAPRSYLEKVVAIYDYTKDKEDELSFQEGAIIYVIKKNDDGWYEGVMNGVTGLFPGNYVESIMHYSE
partner: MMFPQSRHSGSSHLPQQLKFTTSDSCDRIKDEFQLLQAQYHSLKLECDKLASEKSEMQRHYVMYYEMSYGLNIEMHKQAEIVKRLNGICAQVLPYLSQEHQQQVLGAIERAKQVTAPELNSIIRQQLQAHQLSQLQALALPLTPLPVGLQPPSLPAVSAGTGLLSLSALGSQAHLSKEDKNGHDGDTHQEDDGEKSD
B2: Angio-associated migratory cell protein (Homo sapiens), Q13685 (parent)
chain: MESESESGAAADTPPLETLSFHGDEEIIEVVELDPGPPDPDDLAQEMEDVDFEEEEEEEGNEEGWVLEPQEGVVGSMEGPDDSEVTFALHSASVFCVSLDPKTNTLAVTGGEDDKAFVWRLSDGELLFECAGHKDSVTCAGFSHDSTLVATGDMSGLLKVWQVDTKEEVWSFEAGDLEWMEWHPRAPVLLAGTADGNTWMWKVPNGDCKTFQGPNCPATCGRVLPDGKRAVVGYEDGTIRIWDLKQGSPIHVLKGTEGHQGPLTCVAANQDGSLILTGSVDCQAKLVSATTGKVVGVFRPETVASQPSLGEGEESESNSVESLGFCSVMPLAAVGYLDGTLAIYDLATQTLRHQCQHQSGIVQLLWEAGTAVVYTCSLDGIVRLWDARTGRLLTDYRGHTAEILDFALSKDASLVVTTSGDHKAKVFCVQRPDR
partner: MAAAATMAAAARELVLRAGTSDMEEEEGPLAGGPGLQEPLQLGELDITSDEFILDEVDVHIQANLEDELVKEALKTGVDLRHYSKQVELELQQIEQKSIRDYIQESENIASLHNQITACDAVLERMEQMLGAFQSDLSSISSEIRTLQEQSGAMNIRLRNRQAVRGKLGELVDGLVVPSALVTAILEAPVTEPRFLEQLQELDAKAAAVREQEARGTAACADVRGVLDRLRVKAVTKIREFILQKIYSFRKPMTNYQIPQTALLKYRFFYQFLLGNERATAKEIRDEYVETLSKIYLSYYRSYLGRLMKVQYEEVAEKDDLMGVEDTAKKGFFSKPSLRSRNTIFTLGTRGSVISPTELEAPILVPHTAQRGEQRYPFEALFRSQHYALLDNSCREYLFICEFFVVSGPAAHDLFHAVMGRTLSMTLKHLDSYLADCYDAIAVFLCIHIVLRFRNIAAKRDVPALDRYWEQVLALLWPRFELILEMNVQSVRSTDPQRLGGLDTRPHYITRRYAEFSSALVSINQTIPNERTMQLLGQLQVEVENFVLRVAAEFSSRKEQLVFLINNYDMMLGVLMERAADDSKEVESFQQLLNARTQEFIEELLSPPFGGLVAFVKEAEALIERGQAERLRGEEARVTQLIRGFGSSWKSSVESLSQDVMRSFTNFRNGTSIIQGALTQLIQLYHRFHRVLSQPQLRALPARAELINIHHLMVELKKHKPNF
B3: Abl interactor 2 (Homo sapiens), Q9NYB9 (parent)
chain: B1 chain
partner: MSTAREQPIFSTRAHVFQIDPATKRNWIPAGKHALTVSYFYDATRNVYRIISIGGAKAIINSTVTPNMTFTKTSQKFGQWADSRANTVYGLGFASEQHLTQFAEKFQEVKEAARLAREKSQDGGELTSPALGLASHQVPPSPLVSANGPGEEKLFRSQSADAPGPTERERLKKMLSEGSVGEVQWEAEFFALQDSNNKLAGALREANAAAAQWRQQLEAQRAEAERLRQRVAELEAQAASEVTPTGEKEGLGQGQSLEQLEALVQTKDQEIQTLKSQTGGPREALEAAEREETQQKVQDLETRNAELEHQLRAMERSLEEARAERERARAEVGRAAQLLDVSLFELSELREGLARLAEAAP
B4: Cilium assembly protein DZIP1L (Homo sapiens), Q8IYY4 (parent)
chain: MQSPAATAEGLSGPLFGAYTFPTFKFQPRHDSMDWRRISTLDVDRVARELDVATLQENIAGITFCNLDREVCSRCGQPVDPALLKVLRLAQLIIEYLLHCQDCLSASVAQLEARLQTSLGQQQRGQQELGRQADELKGVREESRRRRKMISTLQQLLMQTGTHSYHTCHLCDKTFMNATFLRGHIQRRHAGVAEGGKQKKQEQPVEEVLEELRAKLKWTQGELEAQREAERQRQLQEAELIHQREIEAKKEFDKWKEQEWTKLYGEIDKLKKLFWDEFKNVAKQNSTLEEKLRALQSHSVMESKLGSLRDEESEEWLRQARELQALREKTEIQKTEWKRKVKELHEEHMAEKKELQEENQRLQASLSQDQKKAAAQSQCQISTLRAQLQEQARIIASQEEMIQSLSLRKVEGIHKVPKAVDTEEDSPEEEMEDSQDEQHKVLAALRRNPTLLKHFRPILEDTLEEKLESMGIRKDAKGISIQTLRHLESLLRVQREQKARKFSEFLSLRGKLVKEVTSRAKERQENGAVVSQPDGQPSVKSQQSTLVTREAQPKTRTLQVALPSTPAEPPPPTRQSHGSHGSSLTQVSAPAPRPGLHGPSSTPPSSGPGMSTPPFSSEEDSEGDRVQRVSLQPPKVPSRMVPRPKDDWDWSDTETSEENAQPPGQGSGTLVQSMVKNLEKQLEAPAKKPAGGVSLFFMPNAGPQRAATPGRKPQLSEDESDLEISSLEDLPLDLDQREKPKPLSRSKLPEKFGTGPQSSGQPRVPAW
B5: Protein SSX5 (Homo sapiens), O60225 (parent)
chain: MNGDDAFVRRPRVGSQIPEKMQKAFDDIAKYFSEKEWEKMKASEKIIYVYMKRKYEAMTKLGFKATLPPFMRNKRVADFQGNDFDNDPNRGNQVEHPQMTFGRLQGIFPKITPEKPAEEGNDSKGVPEASGPQNNGKQLRPSGKLNTSEKVNKTSGPKRGKHAWTHRVRERKQLVIYEEISDPQEDDE
partner: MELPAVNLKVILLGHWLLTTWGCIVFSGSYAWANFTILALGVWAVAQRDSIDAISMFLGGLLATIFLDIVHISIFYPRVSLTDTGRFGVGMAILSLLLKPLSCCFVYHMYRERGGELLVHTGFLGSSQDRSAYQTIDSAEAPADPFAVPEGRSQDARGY
B6: U3 small nucleolar RNA-associated protein 25 homolog (Homo sapiens), Q68CQ4 (parent)
chain: MGKRGSRSQSQLLNTLTKKQKKHLRDFGEEHPFYDRVSRKEAKPQICQLSESSDSSDSESDSESEPQQVSGYHRLLATLKNVSEEEEEDEEEEEEEDSIVDDAEMNDEDGGSDVSVEEEMAAESTESPENVALSADPEGKEDGEEPPGTSQTSPEEFTDAKHESLFSLETNFLEEESGDNSSLKASQDPFLQHVNKELKEKAIQAVATNPKTTHELKWPILGQLFFSSKFQKLETFKPPKDIDLKSLHLQKPLESTWTKTNSQFLSGPQKSSSPFTPLQKELFLIMNSYRDLFYPERTALKNGEEIRHVYCLHVINHILKANAQVLGNNSRRRSQKFGVGDDDDFRDQGLTRPKVLIVVPFREAALRVVQLFISLLEGDSKKKIIVSNKKRFQGEYGSDPEERPPNLKRPEDYEAVFVGNIDDHFRIGVAILQRSIRLYAPFYSSDILIASPLGLRTIIGGEGEKKRDFDFLSSIELLIIDQADIYLMQNWEHVLHLMNHMNLLPLDSHGVDFSRVRMWSLNNWSKYYRQTLLFGALQDAQINSVFNKYCVNMQGQVAVRNVPMTGSISHVLVQLPHVFQRMEAENLASVIDARFNFFVNKILPQYRDAVMSHTLIYIPSYFDFVRLRNYFKKEELNFTHICEYTQKSGVSRARHFFLQGEKQFLLFTERFHFYKRYTIKGIRNLIFYELPTYPHFYSEICNMLRATNRGEEATWTCTVLYSKYDAQRLAAVVGVERAAQMLQSNKNVHLFITGEK
partner: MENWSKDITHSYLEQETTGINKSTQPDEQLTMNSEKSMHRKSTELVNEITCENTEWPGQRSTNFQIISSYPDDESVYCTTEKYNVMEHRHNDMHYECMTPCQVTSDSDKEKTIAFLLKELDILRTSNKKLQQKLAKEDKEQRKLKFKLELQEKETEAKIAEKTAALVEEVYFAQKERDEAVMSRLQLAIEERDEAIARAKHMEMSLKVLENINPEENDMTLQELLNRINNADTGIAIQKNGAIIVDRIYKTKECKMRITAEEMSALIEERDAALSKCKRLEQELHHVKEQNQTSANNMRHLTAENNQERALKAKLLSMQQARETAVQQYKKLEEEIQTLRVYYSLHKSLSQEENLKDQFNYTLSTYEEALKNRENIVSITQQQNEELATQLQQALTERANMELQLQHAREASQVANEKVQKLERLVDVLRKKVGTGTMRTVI
B7: Histone-lysine N-methyltransferase SMYD1 (Homo sapiens), Q8NB12 (parent)
chain: MTIGRMENVEVFTAEGKGRGLKATKEFWAADIIFAERAYSAVVFDSLVNFVCHTCFKRQEKLHRCGQCKFAHYCDRTCQKDAWLNHKNECSAIKRYGKVPNENIRLAARIMWRVEREGTGLTEGCLVSVDDLQNHVEHFGEEEQKDLRVDVDTFLQYWPPQSQQFSMQYISHIFGVINCNGFTLSDQRGLQAVGVGIFPNLGLVNHDCWPNCTVIFNNGNHEAVKSMFHTQMRIELRALGKISEGEELTVSYIDFLNVSEERKRQLKKQYYFDCTCEHCQKKLKDDLFLGVKDNPKPSQEVVKEMIQFSKDTLEKIDKARSEGLYHEVVKLCRECLEKQEPVFADTNIYMLRMLSIVSEVLSYLQAFEEASFYARRMVDGYMKLYHPNNAQLGMAVMRAGLTNWHAGNIEVGHGMICKAYAILLVTHGPSHPITKDLEAMRVQTEMELRMFRQNEFMYYKMREAALNNQPMQVMAEPSNEPSPALFHKKQ
B8: Abl interactor 2 (Homo sapiens), Q9NYB9 (parent)
chain: B1 chain
partner: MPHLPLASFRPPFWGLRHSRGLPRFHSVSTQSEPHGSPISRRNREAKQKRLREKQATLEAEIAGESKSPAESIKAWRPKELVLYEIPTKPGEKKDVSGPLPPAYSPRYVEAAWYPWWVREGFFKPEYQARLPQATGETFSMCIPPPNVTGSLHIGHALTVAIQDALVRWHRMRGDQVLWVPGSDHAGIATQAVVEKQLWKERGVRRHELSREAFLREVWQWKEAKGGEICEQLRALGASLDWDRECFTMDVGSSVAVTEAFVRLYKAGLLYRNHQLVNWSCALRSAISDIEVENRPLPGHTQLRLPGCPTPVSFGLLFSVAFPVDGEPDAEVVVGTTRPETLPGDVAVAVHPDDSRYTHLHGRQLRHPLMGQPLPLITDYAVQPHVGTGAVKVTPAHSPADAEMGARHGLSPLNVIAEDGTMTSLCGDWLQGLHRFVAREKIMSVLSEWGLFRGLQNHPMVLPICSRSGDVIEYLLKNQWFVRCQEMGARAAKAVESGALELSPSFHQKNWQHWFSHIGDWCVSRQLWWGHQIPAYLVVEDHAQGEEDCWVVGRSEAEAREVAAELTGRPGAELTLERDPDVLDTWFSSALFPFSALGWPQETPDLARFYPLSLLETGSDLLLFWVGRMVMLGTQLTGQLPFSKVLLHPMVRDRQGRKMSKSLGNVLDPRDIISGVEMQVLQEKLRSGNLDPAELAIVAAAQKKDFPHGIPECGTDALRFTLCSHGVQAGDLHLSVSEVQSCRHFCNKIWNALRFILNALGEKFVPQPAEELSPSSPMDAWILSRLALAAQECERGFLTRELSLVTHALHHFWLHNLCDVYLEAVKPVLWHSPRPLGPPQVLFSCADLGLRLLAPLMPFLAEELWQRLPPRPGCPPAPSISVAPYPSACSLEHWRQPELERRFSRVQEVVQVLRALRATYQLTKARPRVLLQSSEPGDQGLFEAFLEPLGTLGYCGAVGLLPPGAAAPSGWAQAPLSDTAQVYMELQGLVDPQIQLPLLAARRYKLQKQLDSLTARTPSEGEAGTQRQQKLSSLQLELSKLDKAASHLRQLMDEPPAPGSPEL

Consider 10 variants from IntAct's records for PubMed 29892012.

One assay covers variants of B1. Particulars: with tle5_human TLE5, Q08117.
Turning to E202K, the “effect of a mutation on the interaction” value is “with no effect”.

The next assay covers variants of B1. Particulars: with tle5_human TLE5, Q08117. The source holds these as a separate data set.
R373C: the “effect of a mutation on the interaction” value is given as “with no effect”.

The variants in a further assay derive from B2. The following applies: with vps52_human VPS52, Q8N1B4.
Consider I343F, for which the “effect of a mutation on the interaction” value is recorded as “with no effect”.

The variants in another assay derive from B3. The following applies: with home3_human HOMER3, Q9NSC5.
For E202K, the “effect of a mutation on the interaction” value is listed as “with no effect”.

Variants of B3 are the subject of another assay. Particulars: with home3_human HOMER3, Q9NSC5. The source holds these as a separate data set.
As for R373C, the “effect of a mutation on the interaction” value is reported as “with no effect”.

The variants in another assay derive from B4. Particulars: with cep76_human CEP76, Q8TAP6.
Sequence of cep76_human CEP76, Q8TAP6 (Q8TAP6 whole entry): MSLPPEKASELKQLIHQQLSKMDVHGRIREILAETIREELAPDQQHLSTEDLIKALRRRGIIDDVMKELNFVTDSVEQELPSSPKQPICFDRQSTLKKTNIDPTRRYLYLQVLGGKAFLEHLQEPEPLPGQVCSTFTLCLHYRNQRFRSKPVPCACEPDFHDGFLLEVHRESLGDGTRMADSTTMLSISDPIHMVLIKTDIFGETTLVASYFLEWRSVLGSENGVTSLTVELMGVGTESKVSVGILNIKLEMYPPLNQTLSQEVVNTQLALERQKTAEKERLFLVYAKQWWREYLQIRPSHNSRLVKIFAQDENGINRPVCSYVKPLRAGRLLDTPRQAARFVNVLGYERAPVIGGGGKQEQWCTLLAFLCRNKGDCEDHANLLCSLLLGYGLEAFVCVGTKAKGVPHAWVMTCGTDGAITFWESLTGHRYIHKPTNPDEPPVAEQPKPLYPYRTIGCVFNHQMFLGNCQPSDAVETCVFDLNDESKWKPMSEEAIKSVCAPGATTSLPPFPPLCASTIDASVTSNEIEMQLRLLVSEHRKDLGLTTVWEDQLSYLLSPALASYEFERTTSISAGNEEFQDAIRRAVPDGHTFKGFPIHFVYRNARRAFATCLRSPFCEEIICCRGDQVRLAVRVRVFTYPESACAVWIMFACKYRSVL
Take R643W: the “effect of a mutation on the interaction” value is “with no effect”.

In another assay the parent is B5. Particulars: with atrap_human AGTRAP.
Turning to K54R, the “effect of a mutation on the interaction” value is “disrupting interaction strength”.

The variants in another assay derive from B6. Particulars: with mipo1_human MIPOL1, Q8TD10.
D399E: the “effect of a mutation on the interaction” value is given as “with no effect”.

The next assay covers variants of B7. The following applies: with bhe40_human BHLHE40, O14503.
Sequence of bhe40_human BHLHE40, O14503 (O14503 whole entry): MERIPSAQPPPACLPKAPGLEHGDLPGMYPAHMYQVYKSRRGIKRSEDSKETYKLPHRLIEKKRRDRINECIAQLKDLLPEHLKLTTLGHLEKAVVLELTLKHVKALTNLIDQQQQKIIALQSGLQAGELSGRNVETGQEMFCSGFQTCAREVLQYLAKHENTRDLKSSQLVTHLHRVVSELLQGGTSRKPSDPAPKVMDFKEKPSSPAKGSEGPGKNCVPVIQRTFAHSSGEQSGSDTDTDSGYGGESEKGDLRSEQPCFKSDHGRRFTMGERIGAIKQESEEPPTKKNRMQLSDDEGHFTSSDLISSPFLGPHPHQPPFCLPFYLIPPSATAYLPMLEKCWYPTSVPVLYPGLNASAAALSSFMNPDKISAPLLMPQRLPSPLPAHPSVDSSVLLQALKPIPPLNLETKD
For Q443R, the “effect of a mutation on the interaction” value was “with no effect”.

Variants of B8 are the subject of a further assay. Particulars: with syvm_human VARS2, Q5ST30.
Regarding E202K, the “effect of a mutation on the interaction” value is “with no effect”.
